Data from publication doi:10.1101/2025.10.14.682262.
Numbering of substitutions follows the chain as printed. Like-named read-outs stand apart in the source and are kept apart here.

T1: PAN 6 Cys to Ser (Arabidopsis thaliana, UniProt Q9SX27 1-452, C27S;C68S;C87S;C114S;C154S;C340S)
T1 sequence: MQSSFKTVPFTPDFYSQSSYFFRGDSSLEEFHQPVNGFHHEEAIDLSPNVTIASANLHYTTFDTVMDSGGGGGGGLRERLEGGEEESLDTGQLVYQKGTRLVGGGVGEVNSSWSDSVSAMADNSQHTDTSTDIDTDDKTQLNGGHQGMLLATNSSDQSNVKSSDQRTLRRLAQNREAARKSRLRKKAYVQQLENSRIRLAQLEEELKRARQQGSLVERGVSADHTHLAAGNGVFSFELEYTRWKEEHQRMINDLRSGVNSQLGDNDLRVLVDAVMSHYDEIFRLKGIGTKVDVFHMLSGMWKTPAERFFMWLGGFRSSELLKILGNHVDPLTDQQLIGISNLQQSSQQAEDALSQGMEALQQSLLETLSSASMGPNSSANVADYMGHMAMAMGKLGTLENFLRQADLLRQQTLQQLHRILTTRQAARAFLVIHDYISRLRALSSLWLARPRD

T2: PAN 5 Cys to Ser (Arabidopsis thaliana, UniProt Q9SX27 1-452, C27S;C68S;C87S;C114S;C154S)
T2 sequence: T1 sequence with S340C

T3: PAN (…) WT (Arabidopsis thaliana, UniProt Q9SX27 1-452)
T3 sequence: T1 sequence with S27C, S68C, S87C, S114C, S154C, S340C

B1: TGACGT WT probe (dsDNA)
DNA 1: ATCAGATCTAATTGACGTGATAGCATATAGA
DNA 2: TCTATATGCTATCACGTCAATTAGATCTGAT
B2: TGATTT mutated probe (M) (dsDNA)
DNA 1: B1 DNA 1 with C16T, G17T
DNA 2: B1 DNA 2 with C15A, G16A

What was measured:
Assay in all cases: EMSA
PAN 6 Cys to Ser = molecular target: T1, PAN 6 Cys to Ser
PAN 5 Cys to Ser = molecular target: T2, PAN 5 Cys to Ser
PAN (…) WT [1] = molecular target: T3, PAN (…) WT
PAN (…) WT [2] = molecular target: T3, PAN (…) WT; remark: listed apart in the source

| Binder | binding result (PAN 6 Cys to Ser) | binding result (PAN 5 Cys to Ser) | binding result (PAN (…) WT [1]) | binding result (PAN (…) WT [2]) |
| --- | --- | --- | --- | --- |
| B1 | binds | binds | binds |  |
| B2 |  |  |  | no binding |
